13 molecules from paper PMC12691643 can be followed below.

Holding throughout (assay): affinity purification with mass spectrometry; HA-tagged TgWIP variants pulled down by the HA tag from lysates of DC2.4 cells infected 4 h at MOI 7; host partners by mass spectrometry; values are negative fold changes in peptide counts of the mutant immunoprecipitations relative to TgWIP^WT
The target of assay [1] is TgWIP^(WIRS mut), HA-tagged (Toxoplasma gondii).
The target in assay [2] is TgWIP^(PRR2 mut), HA-tagged (Toxoplasma gondii).
Assay [3] addresses TgWIP^(PRR3 mut), HA-tagged (Toxoplasma gondii).
Assay [4] deals with TgWIP^Y150A/Y199A, HA-tagged (Toxoplasma gondii).

Turning to “Wasf2 (Wave2), endogenous in murine DC2.4 cells (from UniProt Q8BH43 1-497) (natural protein)”, the negative fold change in peptide counts relative to TgWIP^WT in assay [1] was 3 fold; in assay [2], 3 fold; in assay [3], 15 fold; in assay [4] it was 2 fold.
For “Pstpip1, endogenous in murine DC2.4 cells (from UniProt P97814 1-415) (natural protein)”, the negative fold change in peptide counts relative to TgWIP^WT was determined as 1 fold in assay [1], 8 fold in assay [2], 5 fold in assay [3] and 1 fold in assay [4].
As for “Abi1, endogenous in murine DC2.4 cells (from UniProt Q8CBW3 1-481) (natural protein)”, the negative fold change in peptide counts relative to TgWIP^WT in assay [1] came out at 4 fold; in assay [2], 4 fold; in assay [3], 6 fold; in assay [4], 2 fold.
“Shp1 (Ptpn6), endogenous in murine DC2.4 cells (from UniProt P29351 1-595) (natural protein)”: the negative fold change in peptide counts relative to TgWIP^WT in assay [1] is 2 fold; in assay [2], 3 fold; in assay [3], 3 fold; in assay [4] it was 32 fold.
Regarding “Cyfip2, endogenous in murine DC2.4 cells (from UniProt Q5SQX6 1-1253) (natural protein)”, the negative fold change in peptide counts relative to TgWIP^WT in assay [1] amounted to 2 fold; in assay [2], 3 fold; in assay [3], 5 fold; in assay [4], 2 fold.
As for “Lrrk1, endogenous in murine DC2.4 cells (from UniProt Q3UHC2 1-2014) (natural protein)”, the negative fold change in peptide counts relative to TgWIP^WT in assay [1] came out at 1 fold; in assay [2], 3 fold; in assay [3], 3 fold; in assay [4] it was 1 fold.
In the case of “Grb2, endogenous in murine DC2.4 cells (from UniProt Q60631 1-217) (natural protein)”, the negative fold change in peptide counts relative to TgWIP^WT in assay [1] was 2 fold; in assay [2], 6 fold; in assay [3], 3 fold; in assay [4], 4 fold.
Turning to “Cyfip1, endogenous in murine DC2.4 cells (from UniProt Q7TMB8 1-1253) (natural protein)”, the negative fold change in peptide counts relative to TgWIP^WT in assay [1] worked out at 2 fold; in assay [2], 2 fold; in assay [3] it was 5 fold; in assay [4] it was 1 fold.
Consider “Nck2, endogenous in murine DC2.4 cells (from UniProt O55033 1-380) (natural protein)”, for which the negative fold change in peptide counts relative to TgWIP^WT in assay [1] turned out to be 1 fold; in assay [2] it was 1 fold; in assay [3] it was 3 fold; in assay [4] it was 1 fold.

B1: Git2, endogenous in murine DC2.4 cells (natural protein)
chain: MSKRLRSSDVCADCNGPDPSWASVNRGTFICDECCSVHRSLGRHISQVRHLKHTAWPPTLLQMVETLYNNGANSIWEHSLLDPASIMSGRRKANPQDKVHPNKAEFIRAKYQMLAFVHRLPCREDDSVTAKDLSKQLHSSVRTGNLETCLRLLSLGAQANFFHPEKGSTPLHVASKAGQILQAELLAVYGADPGTQDSSGKTPVDYARQGGHHELAERLIEIQYELTDRLAFYLCGRKPDHKSGQHFLIPQRADSLDLSELAKAAKKKLQSLSNHLFEELAMDVYDEVDRRETDAVWLATQNHSTLVTETTVVPFLPVNPEYSSTRNQGRQKLARFNAHEFATLVIDILSDAKRRQQGSPLSRSKDNVELILRTVSTQHSTESQDNDQPDYDSVASDEDTDVETRASKANRQKLQTLQSENSSLRRQATASACQVQTGSDHKDTASHSSLKRRPSARGSRPMSMYETGSGQKPYLPMGEASHPEESRTRLQPFPTHIGRSALVTSSSSLPSFPSTLSWSRDESARRASRLEKQNSTPESDYDNTACDPEPDDTGSTRKGRQRSMLWQGDGLLPDTAEPHSVPSPTLPSTEDVIRKTEQITKNIQELLRAAQENKHDSYIPCSERIHVAVTEMAALFPKKPKSDTVRTSLRLLTSSAYRLQSECRKALPGDSSLPTDVQLVTQQVIQCAYDIAKAAKQLVTITTKENSS
As for B1, the negative fold change in peptide counts relative to TgWIP^WT in assay [1] was 2 fold; in assay [2] it was 2 fold; in assay [4], 3 fold.

B2: Shp2 (Ptpn11), endogenous in murine DC2.4 cells (natural protein)
chain: MTSRRWFHPNITGVEAENLLLTRGVDGSFLARPSKSNPGDFTLSVRRNGAVTHIKIQNTGDYYDLYGGEKFATLAELVQYYMEHHGQLKEKNGDVIELKYPLNCADPTSERWFHGHLSGKEAEKLLTEKGKHGSFLVRESQSHPGDFVLSVRTGDDKGESNDGKSKVTHVMIRCQELKYDVGGGERFDSLTDLVEHYKKNPMVETLGTVLQLKQPLNTTRINAAEIESRVRELSKLAETTDKVKQGFWEEFETLQQQECKLLYSRKEGQRQENKNKNRYKNILPFDHTRVVLHDGDPNEPVSDYINANIIMPEFETKCNNSKPKKSYIATQGCLQNTVNDFWRMVFQENSRVIVMTTKEVERGKSKCVKYWPDEYALKEYGVMRVRNVKESAAHDYTLRELKLSKVGQGNTERTVWQYHFRTWPDHGVPSDPGGVLDFLEEVHHKQESIVDAGPVVVHCSAGIGRTGTFIVIDILIDIIREKGVDCDIDVPKTIQMVRSQRSGMVQTEAQYRFIYMAVQHYIETLQRRIEEEQKSKRKGHEYTNIKYSLVDQTSGDQSPLPPCTPTPPCAEMREDSARVYENVGLMQQQRSFR
As for B2, the negative fold change in peptide counts relative to TgWIP^WT in assay [2] amounted to 3 fold; in assay [4], 39 fold.

B3: Git1, endogenous in murine DC2.4 cells (natural protein)
chain: MSRKGPRAEVCADCSAPDPGWASISRGVLVCDECCSVHRSLGRHISIVKHLRHSAWPPTLLQMVHTLASNGANSIWEHSLLDPAQVQSGRRKANPQDKVHPIKSEFIRAKYQMLAFVHKLPCRDDDGVTAKDLSKQLHSSVRTGNLETCLRLLSLGAQANFFHPEKGTTPLHVAAKAGQTLQAELLVVYGADPGSPDVNGRTPIDYARQAGHHELAERLVECQYELTDRLAFYLCGRKPDHKNGHYIIPQMADRSRQKCMSQSLDLSELAKAAKKKLQALSNRLFEELAMDVYDEVDRRENDAVWLATQNHSTLVTERSAVPFLPVNPEYSATRNQGRQKLARFNAREFATLIIDILSEAKRRQQGKSLSSPTDNLELSARSQSELDDQHDYDSVASDEDTDQEPLPSAGATRNNRARSMDSSDLSDGAVTLQEYLELKKALATSEAKVQQLMKVNSSLSDELRRLQREIHKLQAENLQLRQPPGPVPPPSLPSERAEHTLMGPGGSTHRRDRQAFSMYEPGSALKPFGGTPGDELATRLQPFHSTELEDDAIYSVHVPAGLYRIRKGVSASSVPFTPSSPLLSCSQEGSRHASKLSRHGSGADSDYENTQSGDPLLGLEGKRFLELSKEDELHPELESLDGDLDPGLPSTEDVILKTEQVTKNIQELLRAAQEFKHDSFVPCSEKIHLAVTEMASLFPKRPALEPVRSSLRLLNASAYRLQSECRKTVPPEPGAPVDFQLLTQQVIQCAYDIAKAAKQLVTITTREKKQ
B3: the negative fold change in peptide counts relative to TgWIP^WT was determined as 2 fold in assay [1], 4 fold in assay [2], 11 fold in assay [3] and 2 fold in assay [4].

B4: Nostrin, endogenous in murine DC2.4 cells (natural protein)
chain: MRDPLTDCSYNKVYKSLKEFAQHGDNFCKQITSVLQQRANLEISYAKGLQKLAVRLSKALQSTKKNCLSTAWAWASESMKSAADLHQKLGKAIELEAIKPTHQVLSMQEKKRKSLDNEVEKTANLVINNWNQQIKAKKKLMMSTKKHEALFHLVESSKQSLTQKEKQKLLNKLKKSTEKLEKEDESYYQKNMAGYSTRLKWESTLENCYKSMLELEKERIQLLCNNLNQYSQHISLFGQTLTTCHTQIHCAISKVDVEKDIQALMEETAILSIENKSELLLADYFEEDPKNPMDKERRKSLLKPKLGRLQRDIEKASRDKEGLERKLKALASSSSFSDAKSQKDMETLMDENSLKLDLLQANSYKLSSVLADLEQRPKPCHPCSTCIFKWKEKEHSHTYVKISRPLLTKRLEKAESKAPAGGQNNPSSSPSGSTVSQASKHLCKALYTFQARQDDELNLEKGDIVTVHEKKEEGWWFGSLKGKRGHFPAAYVEELPPKAGNTATQA
On to B4, for which the negative fold change in peptide counts relative to TgWIP^WT worked out at 3 fold in assay [1], 6 fold in assay [2], 5 fold in assay [3] and 1 fold in assay [4].
